Measured values reported in the MegaScale stability set (Tsuboyama et al. 2023).

B1: EHEE_rd2_0196 (parent)
chain: TETRTFDSEEEAKKAQKEAEKQGRTVTITRRDDRWEVRFD

Variants of: B1
Experiment: folding stability dG (cDNA display proteolysis); higher = more stable
Details: PBS, room temperature

Row | Variant | folding stability dG
1 | TETPTFDSEEEAKKAQKEAEKQGRTVTITRRDDRWEVRFD [R4P] | 1.25 kcal/mol
2 | TETTTFDSEEEAKKAQKEAEKQGRTVTITRRDDRWEVRFD [R4T] | 2.54 kcal/mol
3 | TETVTFDSEEEAKKAQKEAEKQGRTVTITRRDDRWEVRFD [R4V] | 2.99 kcal/mol
4 | TETMTFDSEEEAKKAQKEAEKQGRTVTITRRDDRWEVRFD [R4M] | 3.24 kcal/mol
5 | TETSTFDSEEEAKKAQKEAEKQGRTVTITRRDDRWEVRFD [R4S] | 2.3 kcal/mol
6 | TETWTFDSEEEAKKAQKEAEKQGRTVTITRRDDRWEVRFD [R4W] | 3.49 kcal/mol
7 | TETQTFDSEEEAKKAQKEAEKQGRTVTITRRDDRWEVRFD [R4Q] | 2.93 kcal/mol
8 | TETNTFDSEEEAKKAQKEAEKQGRTVTITRRDDRWEVRFD [R4N] | 2.11 kcal/mol
9 | TETYTFDSEEEAKKAQKEAEKQGRTVTITRRDDRWEVRFD [R4Y] | 3.12 kcal/mol
10 | TETKTFDSEEEAKKAQKEAEKQGRTVTITRRDDRWEVRFD [R4K] | 2.9 kcal/mol
11 | TETLTFDSEEEAKKAQKEAEKQGRTVTITRRDDRWEVRFD [R4L] | 3.43 kcal/mol
12 | TETRTMDSEEEAKKAQKEAEKQGRTVTITRRDDRWEVRFD [F6M] | 1.24 kcal/mol
13 | TETRTSDSEEEAKKAQKEAEKQGRTVTITRRDDRWEVRFD [F6S] | 0.282 kcal/mol
14 | TETRTIDSEEEAKKAQKEAEKQGRTVTITRRDDRWEVRFD [F6I] | 0.565 kcal/mol
15 | TETRTYDSEEEAKKAQKEAEKQGRTVTITRRDDRWEVRFD [F6Y] | 3.19 kcal/mol
16 | TETRTKDSEEEAKKAQKEAEKQGRTVTITRRDDRWEVRFD [F6K] | 0.23 kcal/mol
17 | TETRTQDSEEEAKKAQKEAEKQGRTVTITRRDDRWEVRFD [F6Q] | 0.251 kcal/mol
18 | TETRTTDSEEEAKKAQKEAEKQGRTVTITRRDDRWEVRFD [F6T] | 0.546 kcal/mol
19 | TETRTHDSEEEAKKAQKEAEKQGRTVTITRRDDRWEVRFD [F6H] | 0.637 kcal/mol
20 | TETRTDDSEEEAKKAQKEAEKQGRTVTITRRDDRWEVRFD [F6D] | 0.02 kcal/mol
21 | TETRTPDSEEEAKKAQKEAEKQGRTVTITRRDDRWEVRFD [F6P] | -0.092 kcal/mol

Row | Variant | folding stability dG
22 | TETRTNDSEEEAKKAQKEAEKQGRTVTITRRDDRWEVRFD [F6N] | 0.174 kcal/mol
23 | TETRTRDSEEEAKKAQKEAEKQGRTVTITRRDDRWEVRFD [F6R] | 0.142 kcal/mol
24 | TETRTVDSEEEAKKAQKEAEKQGRTVTITRRDDRWEVRFD [F6V] | 1.65 kcal/mol
25 | TETRTEDSEEEAKKAQKEAEKQGRTVTITRRDDRWEVRFD [F6E] | 0.25 kcal/mol
26 | TETRTADSEEEAKKAQKEAEKQGRTVTITRRDDRWEVRFD [F6A] | 0.553 kcal/mol
27 | TETRTGDSEEEAKKAQKEAEKQGRTVTITRRDDRWEVRFD [F6G] | 0.049 kcal/mol
28 | TETRTWDSEEEAKKAQKEAEKQGRTVTITRRDDRWEVRFD [F6W] | 1.28 kcal/mol
29 | TETRTLDSEEEAKKAQKEAEKQGRTVTITRRDDRWEVRFD [F6L] | 1.22 kcal/mol
30 | TETRHFDSEEEAKKAQKEAEKQGRTVTITRRDDRWEVRFD [T5H] | 2.71 kcal/mol
31 | TETRMFDSEEEAKKAQKEAEKQGRTVTITRRDDRWEVRFD [T5M] | 3.42 kcal/mol
32 | TETRAFDSEEEAKKAQKEAEKQGRTVTITRRDDRWEVRFD [T5A] | 2.43 kcal/mol
33 | TETRKFDSEEEAKKAQKEAEKQGRTVTITRRDDRWEVRFD [T5K] | 2.09 kcal/mol
34 | TETRWFDSEEEAKKAQKEAEKQGRTVTITRRDDRWEVRFD [T5W] | 4.03 kcal/mol
35 | TETRLFDSEEEAKKAQKEAEKQGRTVTITRRDDRWEVRFD [T5L] | 3.46 kcal/mol
36 | TETRFFDSEEEAKKAQKEAEKQGRTVTITRRDDRWEVRFD [T5F] | 3.75 kcal/mol
37 | TETRYFDSEEEAKKAQKEAEKQGRTVTITRRDDRWEVRFD [T5Y] | 3.96 kcal/mol
38 | TETRRFDSEEEAKKAQKEAEKQGRTVTITRRDDRWEVRFD [T5R] | 2.35 kcal/mol
39 | TETRCFDSEEEAKKAQKEAEKQGRTVTITRRDDRWEVRFD [T5C] | 2.5 kcal/mol
40 | TETRPFDSEEEAKKAQKEAEKQGRTVTITRRDDRWEVRFD [T5P] | 1.24 kcal/mol
41 | TETRDFDSEEEAKKAQKEAEKQGRTVTITRRDDRWEVRFD [T5D] | 2.04 kcal/mol
42 | TETRSFDSEEEAKKAQKEAEKQGRTVTITRRDDRWEVRFD [T5S] | 2.81 kcal/mol

Row | Variant | folding stability dG
43 | TETRGFDSEEEAKKAQKEAEKQGRTVTITRRDDRWEVRFD [T5G] | 1.73 kcal/mol
44 | TETRVFDSEEEAKKAQKEAEKQGRTVTITRRDDRWEVRFD [T5V] | 3.37 kcal/mol
45 | TETRQFDSEEEAKKAQKEAEKQGRTVTITRRDDRWEVRFD [T5Q] | 2.63 kcal/mol
46 | TETREFDSEEEAKKAQKEAEKQGRTVTITRRDDRWEVRFD [T5E] | 2.57 kcal/mol
47 | TETRIFDSEEEAKKAQKEAEKQGRTVTITRRDDRWEVRFD [T5I] | 3.42 kcal/mol
48 | TETRNFDSEEEAKKAQKEAEKQGRTVTITRRDDRWEVRFD [T5N] | 2.3 kcal/mol
49 | TETRTFGSEEEAKKAQKEAEKQGRTVTITRRDDRWEVRFD [D7G] | 2.74 kcal/mol
50 | TETRTFKSEEEAKKAQKEAEKQGRTVTITRRDDRWEVRFD [D7K] | 2.52 kcal/mol
51 | TETRTFLSEEEAKKAQKEAEKQGRTVTITRRDDRWEVRFD [D7L] | 2.87 kcal/mol
52 | TETRTFSSEEEAKKAQKEAEKQGRTVTITRRDDRWEVRFD [D7S] | 2.84 kcal/mol
53 | TETRTFASEEEAKKAQKEAEKQGRTVTITRRDDRWEVRFD [D7A] | 2.92 kcal/mol
54 | TETRTFQSEEEAKKAQKEAEKQGRTVTITRRDDRWEVRFD [D7Q] | 2.54 kcal/mol
55 | TETRTFISEEEAKKAQKEAEKQGRTVTITRRDDRWEVRFD [D7I] | 2.46 kcal/mol
56 | TETRTFESEEEAKKAQKEAEKQGRTVTITRRDDRWEVRFD [D7E] | 2.78 kcal/mol
57 | TETRTFNSEEEAKKAQKEAEKQGRTVTITRRDDRWEVRFD [D7N] | 2.75 kcal/mol
58 | TETRTFPSEEEAKKAQKEAEKQGRTVTITRRDDRWEVRFD [D7P] | 2.58 kcal/mol
59 | TETRTFHSEEEAKKAQKEAEKQGRTVTITRRDDRWEVRFD [D7H] | 2.61 kcal/mol
60 | TETRTFRSEEEAKKAQKEAEKQGRTVTITRRDDRWEVRFD [D7R] | 2.46 kcal/mol
61 | TETRTFMSEEEAKKAQKEAEKQGRTVTITRRDDRWEVRFD [D7M] | 2.82 kcal/mol
62 | TETRTFFSEEEAKKAQKEAEKQGRTVTITRRDDRWEVRFD [D7F] | 3.22 kcal/mol
63 | TETRTFTSEEEAKKAQKEAEKQGRTVTITRRDDRWEVRFD [D7T] | 2.76 kcal/mol
